In patent publication US9988424 (DUKE UNIVERSITY, dated 2018):
Changes are numbered by the printed parent chain.

Experiments:
[1] = target: T1, gp70 B.CaseA2 V1/V2 (HIV-1 V1V2 on murine leukemia virus gp70); test: ELISA
T1 construct: also called B.gp70CaseA2 V1/V2; gp70 B.CaseAV1V2
T1 chain: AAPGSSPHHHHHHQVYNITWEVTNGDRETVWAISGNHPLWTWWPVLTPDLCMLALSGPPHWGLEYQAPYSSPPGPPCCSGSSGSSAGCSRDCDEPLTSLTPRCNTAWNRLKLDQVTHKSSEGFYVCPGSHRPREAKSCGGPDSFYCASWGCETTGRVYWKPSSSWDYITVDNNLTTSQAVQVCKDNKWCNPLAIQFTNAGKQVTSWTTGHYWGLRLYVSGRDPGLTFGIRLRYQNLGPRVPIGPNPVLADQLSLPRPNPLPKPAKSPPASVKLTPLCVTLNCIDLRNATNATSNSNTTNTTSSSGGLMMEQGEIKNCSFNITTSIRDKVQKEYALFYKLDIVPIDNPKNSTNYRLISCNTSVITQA

[2] = target: T2, J08 B.HXB2/BALV1V2 (HIV-1); test: ELISA
T2 construct: also called J08 B.HXB/BAL V1V2
T2 chain: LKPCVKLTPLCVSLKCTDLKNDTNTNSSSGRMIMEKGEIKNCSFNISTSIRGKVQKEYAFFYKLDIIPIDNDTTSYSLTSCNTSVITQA

[3] = target: T3, gp70 B.HXB2/BALV1V2/N156QN160Q (murine leukemia virus; HIV-1); test: ELISA
T3 chain: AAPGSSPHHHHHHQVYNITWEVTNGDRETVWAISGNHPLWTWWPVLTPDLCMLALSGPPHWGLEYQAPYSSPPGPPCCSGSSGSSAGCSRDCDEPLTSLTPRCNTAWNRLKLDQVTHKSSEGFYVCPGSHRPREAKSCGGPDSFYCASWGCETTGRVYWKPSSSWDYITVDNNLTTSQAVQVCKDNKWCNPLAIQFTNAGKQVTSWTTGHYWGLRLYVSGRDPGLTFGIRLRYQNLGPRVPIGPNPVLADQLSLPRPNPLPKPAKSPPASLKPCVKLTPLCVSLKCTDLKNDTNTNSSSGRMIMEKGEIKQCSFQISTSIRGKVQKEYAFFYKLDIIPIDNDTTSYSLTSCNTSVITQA

[4] = target: T4, gp70 B.HXB2/BALV1V2 (murine leukemia virus; HIV-1); test: ELISA
T4 chain: T3 chain with Q311N, Q315N

[5] = target: T5, J08 B.HXB2/BALV1V2N156QN160Q (HIV-1); test: ELISA
T5 chain: T2 chain with N41Q, N45Q

[6] = target: T6, G.con 140CF; test: ELISA OD405nm, bar chart, antibody concentration not given
T6 construct: also called G.con gp140CF; G.con.env03 gp140CF

[7] = target: B.9021 gp140C (HIV-1); test: as above
[8] = target: T7, B.62357 140C; test: as above
T7 construct: also called B.62357 gp140C

[9] = target: B.63521_V1V2 Tags; test: as above
[10] = target: D.9009SA V1V2 Tags; test: as above
[11] = target: A.Q23 V1V2 tags (HIV-1); test: as above
[12] = target: T8, Con 6 120; test: as above
T8 construct: also called Con 6 gp120

[13] = target: T9, AE.con env03 40CF; test: as above
T9 construct: also called AE.con gp140CF; AE.con.env03 gp140CF

[14] = target: T10, A.9004SS V1V2 Tags; test: as above
T10 V1V2 tags construct: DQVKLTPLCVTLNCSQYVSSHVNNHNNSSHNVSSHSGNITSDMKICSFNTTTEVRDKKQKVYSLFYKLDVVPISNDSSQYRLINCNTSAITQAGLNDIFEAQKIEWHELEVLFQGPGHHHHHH

[15] = target: B.040 gp140C; test: as above
[16] = target: T11, D.9009SA V1V2 Tags; test: ELISA, OD405
T11 Env construct: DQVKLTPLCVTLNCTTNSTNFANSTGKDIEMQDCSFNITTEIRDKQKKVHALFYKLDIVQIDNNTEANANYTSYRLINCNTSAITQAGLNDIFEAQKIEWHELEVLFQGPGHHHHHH

[17] = target: B.63521 gp140C; test: ELISA, OD405
[18] = target: T12, G.con gp140CF; test: ELISA, OD405
T12 construct: also called G.con.env03 gp140CF

[19] = target: B. 681-7 gp140C; test: ELISA, OD405
[20] = target: B. 684-6 gp140C; test: ELISA, OD405
[21] = target: T13, B.62357 140C; test: ELISA, OD405
T13 construct: also called B.62357 gp140C

B1: 697D (antibody, V domains shown)
VH: QVQLVQSGAEVKKPGSSVKVSCKASGGNFNTYTISWVRQAPGQGLEWMGRIIPIFGIVNPAQKFPGRVTINVDKSTNTAYMELSSLRSEDTAVYYCATSGVGLHFGYFDYWGQGTQVTVSS
VL: QSVLTQPPSVSGAPGQRVTISCTGSSSNIGAHYDVHWYQQLPGTAPKLLIYGNSNRPSGVPDRFSGSKSGTSASLAITGLQAEDEADYYCQSYDSSLSGYVFGTGTKVTVL
notes: also called mAb 697D; V2 conformational mAb 697D
For B1, the EC50 [1] was 50 pM, the EC50 [2] was 120 pM and the EC50 [3] was > 667000 pM. It also gave an EC50 [4] of 640 pM and an EC50 [5] of 66000 pM.

B2: CH59 (antibody, V domains shown)
VH: EVQLVESGGGLVQPGRSLRLSCAASGFTFDDGAMHWVRQAPGKGLEWVSGISWNSNIIAYADSVKGRFTISRDNAKNSLYLEMNSLRVEDTALYYCAKDSPRGELPLNYWGQGTLVTVSS
VL: SYELTQPPSVSVSPGQTARITCSGDALPKNYAYWYQQKSGQAPVLVIYEDSKRPSGIPERFSGSSSGTMATLTISGAQVEDEADYYCYSTDSSGNHRVFGGGTKLTVL
notes: also called mAb CH59
B2: no binding (tested: not given) [6]; no binding (tested: not given) [7]; no binding (tested: not given) [8]. B2: no binding (tested: not given) [9]; binds [10]; no binding (tested: not given) [11]. B2: no binding (tested: not given) [12]; binds [13]; binds [14]. B2: no binding (tested: not given) [15].

B3: PG16 reverted unmutated ancestor antibody (antibody, V domains shown)
VH: QVQLVESGGGVVQPGRSLRLSCAASGFTFSSYGMHWVRQAPGKGLEWVAVISYDGSNKYYADSVKGRFTISRDNSKNTLYLQMNSLRAEDTAVYYCAREAGGPIWHDDVKYYDFNDGYYYYYYMDVWGKGTTVTVSS
VL: QSALTQPASVSGSPGQSITISCTGTSSDVGSYNLVSWYQQHPGKAPKLMIYEVSKRPSGVSNRFSGSKSGNTASLTISGLQAEDEADYYCCSLTDRSHRIFGGGTKLTVL
notes: also called PG16 RUA; PG16_RUA
B3: no binding (tested: 10 ug/ml) [16]; no binding (tested: 10 ug/ml) [17]; no binding (tested: 10 ug/ml) [18]. B3: no binding (tested: 10 ug/ml) [19]; no binding (tested: 10 ug/ml) [20]; no binding (tested: 10 ug/ml) [21].
